This is an account of results in PMC6232189, “Expression optimization of recombinant cholesterol oxidase in Escherichia coli and its purification and characterization” (AMB Express, 2018).

Substrate in this data set: CC(C)CCC[C@@H](C)[C@H]1CC[C@H]2[C@@H]3CC=C4C[C@@H](O)CC[C@]4(C)[C@H]3CC[C@]12C
Nature of the data set: purified protein. The data set is classed as biochemical, Streptomyces sp. SA-COO. The conditions noted are these: 0-1 mM cholesterol, 0.1 M potassium phosphate pH 7, 25 °C.

Usually Km stands for the substrate concentration at which the rate is half of its maximum.

B1: ChOA (cholesterol oxidase from Streptomyces sp. SA-COO) (Streptomyces sp. SA-COO) (protein)
chain: DNGGYVPAVVIGTGYGAAVSALRLGEAGVQTLMLEMGQLWNQPGPDGNIFCGMLNPDKRSSWFKNRTEAPLGSFLWLDVVNRNIDPYAGVLDRVNYDQMSVYVGRGVGGGSLVNGGMAVEPKRSYFEEILPRVDSSEMYDRYFPRANSMLRVNHIDTKWFEDTEWYKFARVSREQAGKAGLGTVFVPNVYDFGYMQREAAGEVPKSALATEVIYGNNHGKQSLDKTYLAAALGTGKVTIQTLHQVKTIRQTKDGGYALTVEQKDTDGKLLATKEISCRYLFLGAGSLGSTELLVRARDTGTLPNLNSEVGAGWGPNGNIMTARANHMWNPTGAHQSSIPALGIDAWDNSDSSVFAEIAPMPAGLETWVSLYLAITKNPQRGTFVYDAATDRAKLNWTRDQNAPAVNAAKALFDRINKANGTIYRYDLFGTQLKAFADDFCYHPLGGCVLGKATDDYGRVAGYKNLYVTDGSLIPGSVGVNPFVTITALAERNVERIIKQDVTAS
On to B1, for which the Km is on record as 13 µM.
